The test deals with T1, recombinant mouse LRP5-His chimera (mouse, UniProt Q91VN0 31-1383).
T1 construct: extracellular domain; also called ECD of mouse LRP5; not shown: His tag
T1 sequence (looked up): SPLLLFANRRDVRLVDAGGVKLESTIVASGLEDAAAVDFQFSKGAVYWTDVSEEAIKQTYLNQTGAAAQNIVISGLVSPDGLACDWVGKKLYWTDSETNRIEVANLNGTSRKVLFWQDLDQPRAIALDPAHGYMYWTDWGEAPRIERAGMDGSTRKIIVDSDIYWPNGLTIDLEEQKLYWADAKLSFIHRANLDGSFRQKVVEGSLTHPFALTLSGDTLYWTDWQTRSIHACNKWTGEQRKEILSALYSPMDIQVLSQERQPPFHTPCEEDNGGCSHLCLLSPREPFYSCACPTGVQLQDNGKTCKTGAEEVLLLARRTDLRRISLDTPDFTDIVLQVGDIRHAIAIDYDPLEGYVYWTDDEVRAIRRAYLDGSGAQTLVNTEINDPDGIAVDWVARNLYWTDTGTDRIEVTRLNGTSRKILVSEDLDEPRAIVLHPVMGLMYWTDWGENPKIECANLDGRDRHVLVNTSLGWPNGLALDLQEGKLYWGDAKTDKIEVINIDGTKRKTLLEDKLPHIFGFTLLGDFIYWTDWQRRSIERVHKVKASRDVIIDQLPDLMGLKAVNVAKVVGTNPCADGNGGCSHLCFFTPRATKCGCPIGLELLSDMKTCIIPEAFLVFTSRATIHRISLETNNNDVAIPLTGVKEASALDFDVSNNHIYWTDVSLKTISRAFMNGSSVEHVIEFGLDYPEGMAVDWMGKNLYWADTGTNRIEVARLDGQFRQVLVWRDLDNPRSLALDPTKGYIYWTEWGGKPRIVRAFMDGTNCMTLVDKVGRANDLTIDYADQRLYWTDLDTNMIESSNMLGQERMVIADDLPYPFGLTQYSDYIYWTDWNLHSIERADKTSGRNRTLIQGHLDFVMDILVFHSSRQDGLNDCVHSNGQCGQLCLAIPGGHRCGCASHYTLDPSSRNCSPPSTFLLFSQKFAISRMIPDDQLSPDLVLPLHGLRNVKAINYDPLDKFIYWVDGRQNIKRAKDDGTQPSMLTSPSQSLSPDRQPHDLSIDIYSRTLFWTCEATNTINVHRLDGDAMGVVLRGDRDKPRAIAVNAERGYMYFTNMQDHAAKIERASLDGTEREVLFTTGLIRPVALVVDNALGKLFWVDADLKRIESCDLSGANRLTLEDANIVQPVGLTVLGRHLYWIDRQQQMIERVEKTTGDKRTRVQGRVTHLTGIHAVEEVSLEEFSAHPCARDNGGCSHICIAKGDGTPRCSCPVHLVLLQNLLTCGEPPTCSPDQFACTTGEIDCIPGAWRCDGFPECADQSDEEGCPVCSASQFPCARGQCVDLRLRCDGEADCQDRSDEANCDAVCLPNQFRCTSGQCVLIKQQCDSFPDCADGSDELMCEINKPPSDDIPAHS
Nature of the test: single-point ELISA, coated antigen, purified Fab or IgG1, anti-kappa-HRP. In general terms: In an ELISA, binding on a coated surface is turned into a signal by an enzyme label.

B1: LRP5-H5 (antibody, V domains shown)
VH: EVQLVESGGGLVQPGGSLRLSCAASGFNLSYSSIHWVRQAPGKGLEWVASISSSYGSTSYADSVKGRFTISADTSKNTAYLQMNSLRAEDTAVYYCARGYWAIDYWGQGTLVTVSS
VL: DIQMTQSPSSLSASVGDRVTITCRASQSVSSAVAWYQQKPGKAPKLLIYSASSLYSGVPSRFSGSRSGTDFTLTISSLQPEDFATYYCQQPVGHYGYPITFGQGTKVEIKR
notes: Fab-phage in the screen
As for B1, the binding result is on record as “binds”.

The record behind these values is US20230183336A1 (MODMAB THERAPEUTICS, published 2023).
